B1: Murine B7-DC-Ig: murine B7-DC fusion protein: B7-DC extracellular domain fused to murine immunoglobulin Cγ2a hinge, CH2, CH3 (likely SEQ ID NO:80/81) (protein)
chain: MLLLLPILNLSLQLHPVAALFTVTAPKEVYTVDVGSSVSLECDFDRRECTELEGIRASLQKVENDTSLQSERATLLEEQLPLGKALFHIPSVQVRDSGQYRCLVICGAAWDYKYLTVKVKASYMRIDTRILEVPGTGEVQLTCQARGYPLAEVSWQNVSVPANTSHIRTPEGLYQVTSVLRLKPQPSRNFSCMFWNAHMKELTSAIIDPLSRMEPKVPRTWEPRGPTIKPCPPCKCPAPNLLGGPSVFIFPPKIKDVLMISLSPIVTCVVVDVSEDDPDVQISWFVNNVEVHTAQTQTHREDYNSTLRVVSALPIQHQDWMSGKEFKCKVNNKDLPAPIERTISKPKGSVRAPQVYVLPPPEEEMTKKQVTLTCMVTDFMPEDIYVEWTNNGKTELNYKNTEPVLDSDGSYFMYSKLRVEKKNWVERNSYSCSVVHEGLHNHHTTKSFSRTPGK
modifications: Synthetic murine B7-DC fusion protein with signal peptide

Tests used:
[1] = system: Treg; CD4+ T cells expressing high PD-1; assay: T cell analysis (Treg, PD-1+/CD4+ T cells) in CT26 tumor-bearing mice; assay type: in vivo, Balb/C mice
Experimental: (§1) On Day 9, mice were injected with 100 mg/kg of CTX, IP. Twenty four hours later, on Day 10, mice were treated with 100 ug of 137-DC-Ig. […] Two naïve mice and 4 mice from other groups were removed from the study on Day 11 (2 days post CTX) and Day 16 (7 days post CTX) for T cell analysis. […] Mice implanted with tumor cells intended to have more PD-1+/CD4+ T cells in the draining LN compared with naïve mice.
as §1, with “IP.” for “IP. Twenty four hours later, on Day 10, mice were treated with 100 ug of 137-DC-Ig.”

[2] = system: SP-1 mouse prostate tumor cells; assay: Metastatic prostate lung tumor model (SP-1), survival; assay type: in vivo, B10.D2 mice; conditions: CTX 50 mg/kg Day 5, 12, 19; B7-DC-Ig 5 mg/kg Day 6, 13, 20
Experimental: SP-1 cells were isolated from mouse lungs that were metastasized from. TRAMP prostate tumor cell injection. B10.D2 mice were first injected with 3×10^5 SP-1 cells via tail vein injection. On Day 5, 12 and 19, mice were injected with 50 mg/kg of CTX where was indicated. […] Here, “NT” refers to “not treated”.
The CTX mice received 3 doses of CTX, 50 mg/kg, on Day 5, 12 and 19.

[3] = system: CT26 colorectal tumor cells; assay: Established CT26 colorectal tumor model (subcutaneous); conditions: CTX 100 mg/kg on day 10 alone
Text: Balb/C mice at age of 9 to 11 weeks were implanted subcutaneously with 1.0×10^5 CT26 colorectal tumor cells.

P815 mastocytoma = P815 mastocytoma tumor model; assay type: in vivo, DBA/2 mice
Experimental: P815 mastocytoma cells were derived from DBA/2 mice after methylcholanthrene (MCA) treatment. Injection of 5×10^4 cells SC can result in mortality approximately 35 days post tumor inoculation.
DBA/2 mice (6-10 weeks of age, females) were first challenged with 5×10^4 live P815 cells injected SC in the flank. Six days later, the mice were treated with murine B7-DC-Ig via IP injection. […] Control groups were treated with vehicle only or with murine IgG. Tumor size was measured with digital calipers every 2-3 days. Mice were euthanized and defined as dead when their tumor size reached or exceeded 1000 mm^3, according to protocols approved by the Institutional Animal Care and Use Committee (IACUC) of the American Red Cross (ARC; the site of Amplimmune's vivarium). Surviving tumor free mice were re-challenged with P815 tumor cells on Day 52.
The tumor-free mice were then re-challenged with 5×10^4P815 cells administered to the flank opposite the primary inoculation site on Day 52.

[4] = number of mice, 5 per group, P815 cells SC, treatment IP biw 3 weeks starting Day 6

| Molecule | Treg in the spleen vs tumor-implanted vehicle-injected mice ([1]; Day 11, 2 days post CTX 100 mg/kg IP) | mice survived on Day 100 [2] [%] | outcome of mice (tumor growth/survival) [3] | mice responded to treatment (P815 mastocytoma; 100 μg per injection (approximately 5 mg/kg) IP, 2 times per week, up to 6 doses) | # Tumor <500 mm^3 (P815 mastocytoma; [4]) | # Tumor free (P815 mastocytoma; [4]) | # Tumor ≧500 mm^3 (P815 mastocytoma; [4]) | mice in which tumor was eradicated (P815 mastocytoma; of 5 treated mice) | mice showing delayed tumor growth during treatment (P815 mastocytoma; of 5 treated mice) | tumor status after re-challenge with P815 cells on Day 52 (P815 mastocytoma; tumor-free mice re-challenged on opposite flank, followed through 74 days after primary inoculation) | CD4+ T cells expressing high PD-1 ([1]; Day 16, 7 days post CTX and 6 days post B7-DC-Ig 100 ug) |
| --- | --- | --- | --- | --- | --- | --- | --- | --- | --- | --- | --- |
| O=P1(N(CCCl)CCCl)NCCCO1 (stereo not drawn) [CTX, cyclophosphamide, reference compound] | significantly lower | 17 | died as a result of tumor growth or were euthanized | – | – | – | – | – | – | – | – |
| B1 | – | 17 | – | Four of 5 | 2 | 2 | 1 | two | two | remained tumor free | significantly lowered |

— patent US20110223188A1, “TARGETED COSTIMULATORY POLYPEPTIDES AND METHODS OF USE TO TREAT CANCER” (priority 2008, published 2011)
